Molecular target: the molecule itself
Experiment: native MS

B1: subunit K of the Enterococcus hirae rotary ATPase (K10 membrane ring) (natural protein)
chain: MMDYLITQNGGMVFAVLAMATATIFSGIGSAKGVGMTGEAAAALTTSQPEKFGQALILQLLPGTQGLYGFVIAFLIFINLGSDMSVVQGLNFLGASLPIAFTGLFSGIAQGKVAAAGIQILAKKPEHATKGIIFAAMVETYAILGFVISFLLVLNA
  stoichiometry N: 10

Reference: publication PMC3927129 (Science (New York, N.Y.), 2011)
